Measured values: the supplement of paper PMC5998384

Experiments:
[1] = test system: HeLa Kyoto; assay: melting temperature (median over replicates), in situ; higher = more thermally stable
[2] = test system: HeLa Kyoto; assay: solubility change mitosis vs G1/S (difference of NP-40 vs SDS log2 ratios) (log2 ratio difference); higher = more soluble in mitosis
[3] = test system: HeLa Kyoto; assay: thermal stability score vs G1/S (z-score of summed log2 fold changes over temperatures); higher = more thermally stable than in G1/S
[4] = test system: HeLa Kyoto; assay: solubility in G1/S (NP-40 vs SDS abundance) (log2 ratio); higher = more soluble; conditions: cell cycle stage: G1/S
[5] = cell cycle stage: early G1 (4.5 h after nocodazole release)
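Throughout, for melting temperature (median over replicates), in situ: HeLa Kyoto cells synchronized by double thymidine or nocodazole block, proteins quantified by TMT10plex mass spectrometry, three independent biological replicates.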
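Throughout, for solubility change mitosis vs G1/S (difference of NP-40 vs SDS log2 ratios): synchronized HeLa Kyoto cells (double thymidine block for G1/S, nocodazole release for mitosis), protein amounts in NP-40 versus SDS lysates quantified by mass spectrometry, three biological replicates.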
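Throughout, for solubility in G1/S (NP-40 vs SDS abundance): HeLa Kyoto cells arrested at G1/S by double thymidine block, proteins quantified by TMT10plex mass spectrometry in mild NP-40 versus SDS extracts, three biological replicates.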
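Throughout, for thermal stability score vs G1/S (z-score of summed log2 fold changes over temperatures): synchronized HeLa Kyoto cells, proteins quantified by TMT10plex mass spectrometry, three biological replicates, mitosis taken 0.5 h after nocodazole release, G1/S directly after double thymidine block.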

Question: Which melting temperature ([1]; cell cycle stage: G1/S) does the source give for “MEASRRFPEAEALSPEQAAHYLRYVKEAKEATKNGDLEEAFKLFNLAKDIFPNEKVLSRIQKIQEALEELAEQGDDEFTDVCNSGLLLYRELHNQLFEHQKEGIAFLYSLYRDGRKGGILADDMGLGKTVQIIAFLSGMFDASLVNHVLLIMPTNLINTWVKEFIKWTPGMRVKTFHGPSKDERTRNLNRIQQRNGVIITTYQMLINNWQQLSSFRGQEFVWDYVILDEAHKIKTSSTKSAICARAIPASNRLLLTGTPIQNNLQELWSLFDFACQGSLLGTLKTFKMEYENPITRAREKDATPGEKALGFKISENLMAIIKPYFLRRTKEDVQKKKSSNPEARLNEKNPDVDAICEMPSLSRKNDLIIWIRLVPLQEEIYRKFVSLDHIKELLMETRSPLAELGVLKKLCDHPRLLSARACCLLNLGTFSAQDGNEGEDSPDVDHIDQVTDDTLMEESGKMIFLMDLLKRLRDEGHQTLVFSQSRQILNIIERLLKNRHFKTLRIDGTVTHLLEREKRINLFQQNKDYSVFLLTTQVGGVGLTLTAATRVVIFDPSWNPATDAQAVDRVYRIGQKENVVVYRLITCGTVEEKIYRRQVFKDSLIRQTTGEKKNPFRYFSKQELRELFTIEDLQNSVTQLQLQSLHAAQRKSDIKLDEHIAYLQSLGIAGISDHDLMYTCDLSVKEELDVVEESHYIQQRVQKAQFLVEFESQNKEFLMEQQRTRNEGAWLREPVFPSSTKKKCPKLNKPQPQPSPLLSTHHTQEEDISSKMASVVIDDLPKEGEKQDLSSIKVNVTTLQDGKGTGSADSIATLPKGFGSVEELCTNSSLGMEKSFATKNEAVQKETLQEGPKQEALQEDPLESFNYVLSKSTKADIGPNLDQLKDDEILRHCNPWPIISITNESQNAESNVSIIEIADDLSASHSALQDAQASEAKLEEEPSASSPQYACDFNLFLEDSADNRQNFSSQSLEHVEKENSLCGSAPNSRAGFVHSKTCLSWEFSEKDDEPEEVVVKAKIRSKARRIVSDGEDEDDSFKDTSSINPFNTSLFQFSSVKQFDASTPKNDISPPGRFFSSQIPSSVNKSMNSRRSLASRRSLINMVLDHVEDMEERLDDSSEAKGPEDYPEEGVEESSGEASKYTEEDPSGETLSSENKSSWLMTSKPSALAQETSLGAPEPLSGEQLVGSPQDKAAEATNDYETLVKRGKELKECGKIQEALNCLVKALDIKSADPEVMLLTLSLYKQLNNN [ERCC6L]” here?
Answer: 49.5 °C

Question: And the melting temperature ([1]; cell cycle stage: mitosis)?
Answer: 49.1 °C

Question: What about the “solubility change mitosis (log2)” value [2] of the same sequence?
Answer: -0.161

Question: What about the thermal stability score [3, 5] of the same sequence?
Answer: 1.6

Question: What about the thermal stability score ([3]; cell cycle stage: mitosis) of the same sequence?
Answer: 2.53

Question: And the “solubility in G1/S (log2)” value [4]?
Answer: -0.0349

Question: Which results are given for “MEATTAGVGRLEEEALRRKERLKALREKTGRKDKEDGEPKTKHLREEEEEGEKHRELRLRNYVPEDEDLKKRRVPQAKPVAVEEKVKEQLEAAKPEPVIEEVDLANLAPRKPDWDLKRDVAKKLEKLKKRTQRAIAELIRERLKGQEDSLASAVDAATEQKTCDSD [CCDC12]”?
Answer: melting temperature ([1]; cell cycle stage: G1/S): 53.7 °C; melting temperature ([1]; cell cycle stage: mitosis): 53.3 °C; solubility change mitosis (log2) [2]: 0.156; thermal stability score [3, 5]: -1.88; thermal stability score ([3]; cell cycle stage: mitosis): -2.79; solubility in G1/S (log2) [4]: 0.73

Question: Which results are given for “MEAVAVAAAVGVLLLAGAGGAAGDEAREAAAVRALVARLLGPGPAADFSVSVERALAAKPGLDTYSLGGGGAARVRVRGSTGVAAAAGLHRYLRDFCGCHVAWSGSQLRLPRPLPAVPGELTEATPNRYRYYQNVCTQSYSFVWWDWARWEREIDWMALNGINLALAWSGQEAIWQRVYLALGLTQAEINEFFTGPAFLAWGRMGNLHTWDGPLPPSWHIKQLYLQHRVLDQMRSFGMTPVLPAFAGHVPEAVTRVFPQVNVTKMGSWGHFNCSYSCSFLLAPEDPIFPIIGSLFLRELIKEFGTDHIYGADTFNEMQPPSSEPSYLAAATTAVYEAMTAVDTEAVWLLQGWLFQHQPQFWGPAQIRAVLGAVPRGRLLVLDLFAESQPVYTRTASFQGQPFIWCMLHNFGGNHGLFGALEAVNGGPEAARLFPNSTMVGTGMAPEGISQNEVVYSLMAELGWRKDPVPDLAAWVTSFAARRYGVSHPDAGAAWRLLLRSVYNCSGEACRGHNRSPLVRRPSLQMNTSIWYNRSDVFEAWRLLLTSAPSLATSPAFRYDLLDLTRQAVQELVSLYYEEARSAYLSKELASLLRAGGVLAYELLPALDEVLASDSRFLLGSWLEQARAAAVSEAEADFYEQNSRYQLTLWGPEGNILDYANKQLAGLVANYYTPRWRLFLEALVDSVAQGIPFQQHQFDKNVFQLEQAFVLSKQRYPSQPRGDTVDLAKKIFLKYYPRWVAGSW [NAGLU]”?
Answer: melting temperature ([1]; cell cycle stage: G1/S): 55.7 °C; melting temperature ([1]; cell cycle stage: mitosis): 55.5 °C; solubility change mitosis (log2) [2]: -0.238; thermal stability score [3, 5]: -2.49; thermal stability score ([3]; cell cycle stage: mitosis): -1.73; solubility in G1/S (log2) [4]: 0.341

Question: Which results are given for “MEAVKTFNSELYSLNDYKPPISKAKMTQITKAAIKAIKFYKHVVQSVEKFIQKCKPEYKVPGLYVIDSIVRQSRHQFGQEKDVFAPRFSNNIISTFQNLYRCPGDDKSKIVRVLNLWQKNNVFKSEIIQPLLDMAAGIPPPVVTPVLASTTTAMSNTPGTPVTPVTPANVVQGLPDPWVSQITNTDTLAAVAQILQSPQGQQLQQLIQTLQIQQQKPQPSILQALDAGLVVQLQALTAQLTAAAAAANTLTPLEQGVSFNKKLMDRFDFGEDSEHSEEPKKEIPASQLSHVSESVNNSIFHQIAEQLQQQNLEHLRQQLLEQQQPQKATPQDSQEGTFGSEHSASPSQGSSQQHFLEPEVNLDDSIDIQQQDMDIDEGQDGVEEEVFEQEAKKVAVRSRSRTHSRSRSRSPRKRRSRSRSGSRKRKHRKRSRSRSRERKRKSSRSYSSERRAREREKERQKKGLPPIRSKTLSVCSTTLWVGQVDKKATQQDLTNLFEEFGQIESINMIPPRGCAYVCMVHRQDAFRALQKLSSGSYKIGSKVIKIAWALNKGVKTEYKQFWDVDLGVTYIPWEKVKVDDLEGFAEGGMIDQETVNTEWETVKSSEPVKETVQTTQSPTPVEKETVVTTQAEVFPPPVAMLQIPVAPAVPTVSLVPPAFPVSMPVPPPGFSPIPPPPFLRASFNPSQPPPGFMPPPVPPPVVPPPTIPPVVPTSLVQPSLSMTPETVKDVGFGSLVIPGGSVASNLATSALPAGNVFNAPTKQAEPEEKVPHLIDHQISSGENTRSVIPNDISSNAAILGGQPPNVTSNSGILGVQRPNVSSNSEILGVRPSNVSSSSGIIAAQPPNILNNSGILGIQPPSVSNSSGLLGVLPPNIPNNSGLVGVQPPNVPNTPGLLGTQPPAGPQNLPPLSIPNQRMPTMPMLDIRPGLIPQAPGPRFPLIQPGIPPQRGIPPPSVLDSALHPPPRGPFPPGDIFSQPERPFLAPGRQSVDNVTNPEKRIPLGNDNIQQEGDRDYRFPPIETRESISRPPPVDVRDVVGRPIDPREGPGRPPLDGRDHFGRPPVDIRENLVRPGIDHLGRRDHFGFNPEKPWGHRGDFDEREHRVLPVYGGPKGLHEERGRFRSGNYRFDPRSGPWNRGFGQEVHRDFDDRRRPWERQRDRDDRDFDFCREMNGNRLGRDRIQNTWVPPPHARVFDYFEGATSQRKGDNVPQVNGENTERHAQPPPIPVQNDPELYEKLTSSNEINKEKSDTVADIESEPVVESTETEGT [SCAF8]”?
Answer: melting temperature ([1]; cell cycle stage: G1/S): 48.6 °C; melting temperature ([1]; cell cycle stage: mitosis): 49.3 °C; solubility change mitosis (log2) [2]: -0.0284; thermal stability score [3, 5]: 0.536; thermal stability score ([3]; cell cycle stage: mitosis): 0.448; solubility in G1/S (log2) [4]: -0.11

Question: Which melting temperature ([1]; cell cycle stage: G1/S) does the source give for “MEDDAPVIYGLEFQARALTPQTAETDAIRFLVGTQSLKYDNQIHIIDFDDENNIINKNVLLHQAGEIWHISASPADRGVLTTCYNRTSDSKVLTCAAVWRMPKELESGSHESPDDSSSTAQTLELLCHLDNTAHGNMACVVWEPMGDGKKIISLADNHILLWDLQESSSQAVLASSASLEGKGQLKFTSGRWSPHHNCTQVATANDTTLRGWDTRSMSQIYCIENAHGQLVRDLDFNPNKQYYLASCGDDCKVKFWDTRNVTEPVKTLEEHSHWVWNVRYNHSHDQLVLTGSSDSRVILSNMVSISSEPFGHLVDDDDISDQEDHRSEEKSKEPLQDNVIATYEEHEDSVYAVDWSSADPWLFASLSYDGRLVINRVPRALKYHILL [TSSC1]” here?
Answer: 51.9 °C

Question: What about the melting temperature ([1]; cell cycle stage: mitosis) of the same sequence?
Answer: 52.9 °C

Question: And the “solubility change mitosis (log2)” value [2]?
Answer: -0.21

Question: And the thermal stability score [3, 5]?
Answer: -0.291

Question: What about the thermal stability score ([3]; cell cycle stage: mitosis) of the same sequence?
Answer: -0.357

Question: And the “solubility in G1/S (log2)” value [4]?
Answer: 0.0334

Question: Which results are given for “MEDGKPVWAPHPTDGFQMGNIVDIGPDSLTIEPLNQKGKTFLALINQVFPAEEDSKKDVEDNCSLMYLNEATLLHNIKVRYSKDRIYTYVANILIAVNPYFDIPKIYSSEAIKSYQGKSLGTRPPHVFAIADKAFRDMKVLKMSQSIIVSGESGAGKTENTKFVLRYLTESYGTGQDIDDRIVEANPLLEAFGNAKTVRNNNSSRFGKFVEIHFNEKSSVVGGFVSHYLLEKSRICVQGKEERNYHIFYRLCAGASEDIREKLHLSSPDNFRYLNRGCTRYFANKETDKQILQNRKSPEYLKAGSMKDPLLDDHGDFIRMCTAMKKIGLDDEEKLDLFRVVAGVLHLGNIDFEEAGSTSGGCNLKNKSAQSLEYCAELLGLDQDDLRVSLTTRVMLTTAGGTKGTVIKVPLKVEQANNARDALAKTVYSHLFDHVVNRVNQCFPFETSSYFIGVLDIAGFEYFEHNSFEQFCINYCNEKLQQFFNERILKEEQELYQKEGLGVNEVHYVDNQDCIDLIEAKLVGILDILDEENRLPQPSDQHFTSAVHQKHKDHFRLTIPRKSKLAVHRNIRDDEGFIIRHFAGAVCYETTQFVEKNNDALHMSLESLICESRDKFIRELFESSTNNNKDTKQKAGKLSFISVGNKFKTQLNLLLDKLRSTGASFIRCIKPNLKMTSHHFEGAQILSQLQCSGMVSVLDLMQGGYPSRASFHELYNMYKKYMPDKLARLDPRLFCKALFKALGLNENDYKFGLTKVFFRPGKFAEFDQIMKSDPDHLAELVKRVNHWLTCSRWKKVQWCSLSVIKLKNKIKYRAEACIKMQKTIRMWLCKRRHKPRIDGLVKVGTLKKRLDKFNEVVSVLKDGKPEMNKQIKNLEISIDTLMAKIKSTMMTQEQIQKEYDALVKSSEELLSALQKKKQQEEEAERLRRIQEEMEKERKRREEDEKRRRKEEEERRMKLEMEAKRKQEEEERKKREDDEKRIQAEVEAQLARQKEEESQQQAVLEQERRDRELALRIAQSEAELISDEAQADLALRRSLDSYPVSKNDGTRPKMTPEQMAKEMSEFLSRGPAVLATKAAAGTKKYDLSKWKYAELRDTINTSCDIELLAACREEFHRRLKVYHAWKSKNKKRNTETEQRAPKSVTDYDFAPFLNNSPQQNPAAQIPARQREIEMNRQQRFFRIPFIRPADQYKDPQSKKKGWWYAHFDGPWIARQMELHPDKPPILLVAGKDDMEMCELNLEETGLTRKRGAEILPRQFEEIWERCGGIQYLQNAIESRQARPTYATAMLQSLLK [MYO6]”?
Answer: melting temperature ([1]; cell cycle stage: G1/S): 52.1 °C; melting temperature ([1]; cell cycle stage: mitosis): 51.5 °C; solubility change mitosis (log2) [2]: -0.164; thermal stability score [3, 5]: -0.962; thermal stability score ([3]; cell cycle stage: mitosis): -1.32; solubility in G1/S (log2) [4]: -0.238

Question: For “MEDTPLVISKQKTEVVCGVPTQVVCTAFSSHILVVVTQFGKMGTLVSLEPSSVASDVSKPVLTTKVLLGQDEPLIHVFAKNLVAFVSQEAGNRAVLLAVAVKDKSMEGLKALREVIRVCQVW [PSMG3]”, which melting temperature ([1]; cell cycle stage: G1/S) is on record?
Answer: 57.8 °C

Question: And the melting temperature ([1]; cell cycle stage: mitosis)?
Answer: 56.2 °C

Question: What about the “solubility change mitosis (log2)” value [2] of the same sequence?
Answer: -0.0857

Question: And the thermal stability score [3, 5]?
Answer: -1.46

Question: And the thermal stability score ([3]; cell cycle stage: mitosis)?
Answer: -2.93

Question: And the “solubility in G1/S (log2)” value [4]?
Answer: 0.13
